Source: US11306156
Values belong to the substance of their own block, whether it stands above or below them.

Experiments:
[1] = target: tissue factor (TF) antigen (UniProt P13726); test: SPR (ProteOn), Fab captured on anti-penta-His surface, TF injected, 1:1 fit
[2] = target: tissue factor (TF) antigen (UniProt P13726); test: SPR (ProteOn), Fab captured on anti-penta-His surface, TF injected; reference wild-type D3H44 Fab
[3] = target: tissue factor (TF) antigen (UniProt P13726); test: SPR, same assay; reference wild-type D3H44 Fab
[4] = target: tissue factor (TF) antigen (UniProt P13726); test: SPR (ProteOn XPR36), Fab captured on anti-penta His surface, TF injected as analyte, 1:1 model
[5] = target: tissue factor (TF) antigen (UniProt P13726); test: SPR, Fab captured on anti-penta-His surface, TF as analyte, 1:1 fit; Fab batch C; against wild-type D3H44 Fab
[6] = target: tissue factor (TF) antigen (UniProt P13726); test: SPR, Fab captured on anti-penta-His surface, TF as analyte, 1:1 fit; Fab batch C
[7] = target: tissue factor (TF) antigen (UniProt P13726); test: SPR (ProteOn XPR36), Fab captured on anti-penta-His, TF injected, 1:1 fit; batch C (+)
[8] = target: tissue factor (TF) antigen (UniProt P13726); test: SPR, against wild-type D3H44 Fab; batch C (+)
[9] = target: tissue factor (TF) antigen (UniProt P13726); test: SPR (ProteOn XPR36), His-tagged Fab captured on anti-penta His, TF as analyte, 1:1 fit

Sequence of tissue factor (TF) antigen (P13726 33-251 limits assumed): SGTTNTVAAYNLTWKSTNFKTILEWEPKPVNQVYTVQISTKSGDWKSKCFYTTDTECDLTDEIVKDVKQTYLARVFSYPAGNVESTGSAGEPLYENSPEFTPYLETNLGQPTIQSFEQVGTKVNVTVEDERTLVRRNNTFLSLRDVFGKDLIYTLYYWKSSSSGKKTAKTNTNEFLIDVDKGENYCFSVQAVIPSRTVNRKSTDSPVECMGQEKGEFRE

Kd [1]: 0.22 nM | Change in median values of KD of h1l1 Fab heterodimer compared to wild type (-(log(KD design)-log(KD wt))) [2]: -0.15
Substance: D3H44 H1L1 Fab heterodimer of LCCA Sets # 9176, 9178 and 9179 (H1 L124E_L143D_K145M; L1 Q124K_V133G_S176R_T178K)

change in median KD of H1L1 Fab heterodimer compared to wild type (-(log(KD design)-log(KD wt))) [3]: -0.21 | Kd [4]: 0.26 nM
Substance: H1L1 Fab heterodimer of LCCA set 9516 (D3H44 Fab, H1 L124R_S186R, L1 Q124E_V133G_S176D_T178D_T180E)

change in median KD of H1L1 Fab heterodimer compared to wild type (-(log(KD design)-log(KD wt))) [3]: -0.19 | Kd [4]: 0.24 nM
Substance: H1L1 Fab heterodimer of LCCA set 9260 (D3H44 Fab, H1 L124E_L143E_K145M, L1 Q124K_V133G_S176R_T178K)

change in median KD compared to wild type, -(log(KD design)-log(KD wt)) [5]: 0.09 | Kd [6]: 0.13 nM
Substance: D3H44 H1L1 Fab heterodimer of LCCA Set # 9831 (H1 S186K; L1 Q124E_Q160E_T180E)

Kd [1]: 0.15 nM | Change in median values of KD of h1l1 Fab heterodimer compared to wild type (-(log(KD design)-log(KD wt))) [2]: 0.03
Substance: D3H44 H1L1 Fab heterodimer of LCCA Sets # 9349 and 9348 (H1 L124R_A139G_V190A; L1 V133G_L135W_S176D)

Kd [7]: 0.16 nM | Change in median values of KD of h1l1 Fab heterodimer compared to wild type (-(log(KD design)-log(KD wt))) [8]: -0.01
Substance: H1L1 Fab heterodimer of LCCA Set # 9779 and 9780 (D3H44 Fab; H1 Q179K, L1 Q124E_S131T_T178Y_T180E)

change in median KD compared to wild type, -(log(KD design)-log(KD wt)) [5]: 0.15 | Kd [6]: 0.11 nM
Substance: D3H44 H1L1 Fab heterodimer of LCCA Set # 9987 (H1 L143E_K145T; L1 Q124R_T178R)

Kd [1]: 0.22 nM | Change in median values of KD of h1l1 Fab heterodimer compared to wild type (-(log(KD design)-log(KD wt))) [2]: -0.15
Substance: D3H44 H1L1 Fab heterodimer of LCCA Sets # 9237, 9236, 9234, 9239, 9243 and 9240 (H1 L124E_L143D_K145T; L1 V133G_S176R_T178K)

Kd [7]: 0.13 nM | Change in median values of KD of h1l1 Fab heterodimer compared to wild type (-(log(KD design)-log(KD wt))) [8]: 0.07
Substance: H1L1 Fab heterodimer of LCCA Set # 9805 and 9806 (D3H44 Fab; H1 Q179R, L1 Q124E_S131T_T178Y_T180E)

Kd [1]: 0.31 nM | Change in median values of KD of h1l1 Fab heterodimer compared to wild type (-(log(KD design)-log(KD wt))) [2]: -0.29
Substance: D3H44 H1L1 Fab heterodimer of LCCA Set # 9270 (H1 L124E_L143E_K145M; L1 Q124K_V133G_S176R_T178R)

change in median KD compared to wild type, -(log(KD design)-log(KD wt)) [5]: 0.36 | Kd [6]: 0.07 nM
Substance: D3H44 H1L1 Fab heterodimer of LCCA Set # 9901 (H1 S186R; L1 Q124E_T180E)

change in median KD of H1L1 Fab heterodimer compared to wild type (-(log(KD design)-log(KD wt))) [3]: -0.02 | Kd [4]: 0.16 nM
Substance: H1L1 Fab heterodimer of LCCA set 9225 (D3H44 Fab, H1 L124E_L143D_K145T, L1 Q124K_V133G_S176R_T178R)

change in median KD of H1L1 Fab heterodimer compared to wild type (-(log(KD design)-log(KD wt))) [3]: -0.1 | Kd [4]: 0.2 nM
Substance: H1L1 Fab heterodimer of LCCA set 9351 (D3H44 Fab, H1 L124R_D146N_Q179K, L1 Q124E_V133G_S176D_T178E_T180E)

change in median KD compared to wild type, -(log(KD design)-log(KD wt)) [5]: 0.05 | Kd [6]: 0.14 nM
Substance: D3H44 H1L1 Fab heterodimer of LCCA Set # 9784 (H1 Q179K; L1 Q124E_T178E)

change in median KD of H1L1 Fab heterodimer compared to wild type (-(log(KD design)-log(KD wt))) [3]: -0.04 | Kd [4]: 0.17 nM
Substance: H1L1 Fab heterodimer of LCCA set 9354 (D3H44 Fab, H1 L124R_D146N_Q179K, L1 V133G_Q160E_S176D_T180E)

Kd [1]: 0.2 nM | Change in median values of KD of h1l1 Fab heterodimer compared to wild type (-(log(KD design)-log(KD wt))) [2]: -0.1
Substance: D3H44 H1L1 Fab heterodimer of LCCA Sets # 9521 and 9520 (H1 L124R_S186R; L1 V133G_S176D_T178D)

Kd [9]: 0.18 nM
Substance: D3H44 Fab heterodimer, H1 P175C_C233S / L1 S162C_C214S (H1L1 Fab of LCCA Set # 9044)

Kd [1]: 0.13 nM | Change in median values of KD of h1l1 Fab heterodimer compared to wild type (-(log(KD design)-log(KD wt))) [2]: 0.09
Substance: D3H44 H1L1 Fab heterodimer of LCCA Set # 9185 (H1 L124E_L143D_K145M; L1 Q124K_V133G_S176R_T178R)

Kd [1]: 0.27 nM | Change in median values of KD of h1l1 Fab heterodimer compared to wild type (-(log(KD design)-log(KD wt))) [2]: -0.23
Substance: D3H44 H1L1 Fab heterodimer of LCCA Set # 9344 (H1 L124R_A125R; L1 V133G_S176D_T178D)
